Source: PMC8373167 (Advanced Science, 2021)

Key:
[1] = tested on: ACE2; settings: cited from earlier work
[2] = assay type: in vivo, mice
Description: Supplemental Figure 5. Body weight monitoring following DX600 exposure was conducted in mice for 25 days. The experiment was carried out in 10 mice at 4-weeks of age. The mice were either […]
was repeated on day 0, day 4, day 11, day 18 and day 25, and the weight of the mice was […]
group (n = 5, weight from 26.5 ± 5.2 g to 41.2 ± 3.1 g) and the control group (n = 5, weight from […]

[3] = target: T1, ACE2 (Homo sapiens, UniProt Q9BYF1); experiment: biochemical
Target sequence in this assay (Q9BYF1 18-805): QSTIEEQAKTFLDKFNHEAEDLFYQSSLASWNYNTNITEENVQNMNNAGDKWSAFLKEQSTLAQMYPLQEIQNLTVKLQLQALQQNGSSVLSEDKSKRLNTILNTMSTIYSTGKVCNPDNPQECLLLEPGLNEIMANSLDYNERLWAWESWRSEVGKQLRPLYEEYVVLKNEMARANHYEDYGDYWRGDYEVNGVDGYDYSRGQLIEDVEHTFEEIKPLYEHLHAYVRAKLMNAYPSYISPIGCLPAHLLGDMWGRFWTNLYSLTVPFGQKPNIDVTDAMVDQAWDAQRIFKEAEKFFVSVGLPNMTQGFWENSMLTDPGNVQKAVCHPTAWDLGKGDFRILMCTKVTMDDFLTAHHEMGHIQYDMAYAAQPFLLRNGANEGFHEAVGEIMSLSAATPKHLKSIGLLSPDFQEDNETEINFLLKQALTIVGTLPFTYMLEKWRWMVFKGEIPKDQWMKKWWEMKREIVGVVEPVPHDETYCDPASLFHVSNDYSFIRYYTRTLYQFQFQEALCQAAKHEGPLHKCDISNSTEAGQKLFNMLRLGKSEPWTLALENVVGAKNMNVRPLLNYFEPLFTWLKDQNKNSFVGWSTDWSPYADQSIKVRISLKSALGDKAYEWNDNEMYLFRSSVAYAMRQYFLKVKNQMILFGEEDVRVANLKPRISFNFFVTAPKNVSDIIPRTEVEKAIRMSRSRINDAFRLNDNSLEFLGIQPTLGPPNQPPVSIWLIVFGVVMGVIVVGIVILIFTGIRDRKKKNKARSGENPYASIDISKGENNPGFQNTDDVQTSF
Description: Briefly, recombinant human ACE2 protein (50 µg mL^−1; BP003061) was immobilized on the surface of the nanogold sensor chip, after the chip was activated by 1‐ethyl‐3‐(3‐dimethylaminopropyl)carbodiimide/N‐hydroxysuccinimide. […] K D, ka and kd were calculated using Trace Drawer Evaluation version 2.0 (Trace Software International, Saint‐Romain, France).

[4] = target: T1, ACE2; settings: in vivo
Target sequence in this assay (Q9BYF1 18-805): as above

[5] = target: T1, ACE2; settings: PET/MR 2 h after injection, female volunteers #005 and #012
Target sequence in this assay (Q9BYF1 18-805): as above

[6] = assay type: physicochemical; settings: 0.01 M PBS, 37 °C, 50 µL tracer in 450 µL PBS, sampled at 1, 2, 4 h; stated within 2 h
Description: The solution was analyzed by radio‐HPLC to assess the radiochemical purity. The HPLC was eluted with water‐CH3CN system (Phase A: 0.1% TFA H2O; Phase B: 0.1% TFA CH3CN) using gradient elution (0–5 min 20% B; 5–10 min 20%–80% B; 10–12 min 80% B; 12–15 min 80%–20% B) at a flow rate of 1.0 mL min^−1. The radiolabeling yield was 59.9 ± 3.9% (non‐decay corrected, n = 10) and the radiochemical purity was over 95%. […] At 1, 2, and 4 h time points, 10 µL aliquot was analyzed by radio‐HPLC to assess the radiochemical purity.
Supplemental Figure 2. […] (A) Saturation binding assay […]
assay of DX600. (C) hACE2 expression specifically determine the accumulation of 64Cu-HZ20 over HEK293-hACE2 and HEK293-WT cells for 2 h incubation at 37 °C. (D) Stability analysis

[7] = in vivo; settings: female, athymic nude, mouse, HepG2 xenograft tumor, iv, 3.7 MBq, total radioactivity
Description: 5 × 10^6 of HepG2 cells were inoculated into the right front shoulder region of the mice to build the xenograft tumor model with ACE2 expression. When the tumor volumes were estimated to be 450–800 mm^3, the mice were used for the studies. […] Scans were performed at 60, 120, and 180 min after administration. […] Subsequently, animals were scanned at 60, 120, and 180 min post‐injection. Regions of interest were defined over tumor, heart, liver, lung, kidney, and muscle and uptake computed relative to the injected activity.
Tumor, heart, liver, lung, kidney and muscle were selected for analysis.

[8] = clinical; settings: human, in vivo, iv, total radioactivity
[9] = target: T1, ACE2; experiment: SPR; recombinant human ACE2 (50 ug/mL) immobilised on a nanogold sensor chip activated with EDC/NHS; dilutions of peptide flowed at 20 uL/min for 7 min; Nicoya OpenSPR
Target sequence in this assay (Q9BYF1 18-740): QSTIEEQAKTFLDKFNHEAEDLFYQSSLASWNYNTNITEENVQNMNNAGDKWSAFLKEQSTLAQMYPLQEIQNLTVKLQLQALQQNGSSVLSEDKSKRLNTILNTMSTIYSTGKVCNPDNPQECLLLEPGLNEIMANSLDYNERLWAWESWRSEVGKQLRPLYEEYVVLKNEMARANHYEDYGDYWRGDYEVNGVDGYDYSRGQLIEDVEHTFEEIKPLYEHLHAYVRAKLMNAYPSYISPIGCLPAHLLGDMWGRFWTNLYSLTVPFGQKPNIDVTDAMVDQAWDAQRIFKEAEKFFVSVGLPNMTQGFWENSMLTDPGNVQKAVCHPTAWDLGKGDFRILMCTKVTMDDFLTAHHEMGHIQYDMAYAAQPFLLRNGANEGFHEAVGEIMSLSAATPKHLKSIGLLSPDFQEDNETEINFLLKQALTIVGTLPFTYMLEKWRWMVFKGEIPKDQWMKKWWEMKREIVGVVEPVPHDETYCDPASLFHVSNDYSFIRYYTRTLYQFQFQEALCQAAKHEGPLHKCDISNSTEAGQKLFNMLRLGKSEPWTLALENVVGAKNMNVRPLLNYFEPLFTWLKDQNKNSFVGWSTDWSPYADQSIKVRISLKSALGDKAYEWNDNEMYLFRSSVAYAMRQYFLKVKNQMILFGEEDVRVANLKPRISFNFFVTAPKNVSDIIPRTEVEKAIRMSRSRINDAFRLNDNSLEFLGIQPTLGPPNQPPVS

For CC(=O)NCC(=O)N[C@@H](CC(=O)O)C(=O)N[C@@H](Cc1ccc(O)cc1)C(=O)N[C@@H](CO)C(=O)N[C@@H](Cc1cnc[nH]1)C(=O)N[C@H]1CSSC[C@@H](C(=O)N[C@H](C(=O)N[C@@H](Cc2ccc(O)cc2)C(=O)N2CCC[C@H]2C(=O)N[C@@H](CC(=O)O)C(=O)N2CCC[C@H]2C(=O)N[C@@H](CCC(=O)O)C(=O)NCC(=O)NCC(=O)NCC(N)=O)[C@@H](C)O)NC(=O)[C@H](CCCCN)NC(=O)[C@H](Cc2c[nH]c3ccccc23)NC(=O)[C@H](Cc2c[nH]c3ccccc23)NC(=O)[C@@H]2CCCN2C(=O)[C@H](Cc2ccc(O)cc2)NC(=O)[C@H](Cc2ccc(O)cc2)NC(=O)[C@H](CCCNC(=N)N)NC(=O)[C@H](CC(C)C)NC(=O)[C@@H]2CCCN2C(=O)[C@H](CO)NC1=O [DX600], the “stability to ACE2 catalyzed hydrolysis” value [1] is listed as “stable”, the “body weight at start” value ([2]; mice 4 weeks old, n = 5, injections day 0, 4, 11, 18, 25) is listed as 26.5 ± 5.2 g and the “body weight at end” value ([2]; mice, n = 5, 25 days, injections day 0, 4, 11, 18, 25) is listed as 41.2 ± 3.1 g. For the same compound, the “body weight versus saline control group” value ([2]; mice, n = 5 per group, 25 days) was “no significant difference”.

CC(C)C[C@@H]1NC(=O)[C@@H]2CCCN2C(=O)[C@H](CO)NC(=O)[C@@H](NC(=O)[C@H](Cc2c[nH]cn2)NC(=O)[C@H](CO)NC(=O)[C@H](Cc2ccc(O)cc2)NC(=O)[C@H](CC(=O)O)NC(=O)CNC(=O)CN2CCN(CC(=O)O)CCN(CC(=O)O)CCN(CC(=O)O)CC2)CSSC[C@@H](C(=O)N[C@H](C(=O)N[C@@H](Cc2ccc(O)cc2)C(=O)N2CCC[C@H]2C(=O)N[C@@H](CC(=O)O)C(=O)N2CCC[C@H]2C(=O)N[C@@H](CCC(=O)O)C(=O)NCC(=O)NCC(=O)NCC(N)=O)[C@@H](C)O)NC(=O)[C@H](CCCCN)NC(=O)[C@H](Cc2c[nH]c3ccccc23)NC(=O)[C@H](Cc2c[nH]c3ccccc23)NC(=O)[C@@H]2CCCN2C(=O)[C@H](Cc2ccc(O)cc2)NC(=O)[C@H](Cc2ccc(O)cc2)NC(=O)[C@H](CCCNC(=N)N)NC1=O [HZ20] gave a Kd [3] of 100 nM.

In the case of CC(C)C[C@@H]1NC(=O)[C@@H]2CCCN2C(=O)[C@H](CO)NC(=O)[C@@H](NC(=O)[C@H](Cc2c[nH]cn2)NC(=O)[C@H](CO)NC(=O)[C@H](Cc2ccc(O)cc2)NC(=O)[C@H](CC(=O)O)NC(=O)CNC(=O)CN2CCN(CC(=O)O)CCN(CC(=O)O)CCN(CC(=O)O)CC2)CSSC[C@@H](C(=O)N[C@H](C(=O)N[C@@H](Cc2ccc(O)cc2)C(=O)N2CCC[C@H]2C(=O)N[C@@H](CC(=O)O)C(=O)N2CCC[C@H]2C(=O)N[C@@H](CCC(=O)O)C(=O)NCC(=O)NCC(=O)NCC(N)=O)[C@@H](C)O)NC(=O)[C@H](CCCCN)NC(=O)[C@H](Cc2c[nH]c3ccccc23)NC(=O)[C@H](Cc2c[nH]c3ccccc23)NC(=O)[C@@H]2CCCN2C(=O)[C@H](Cc2ccc(O)cc2)NC(=O)[C@H](Cc2ccc(O)cc2)NC(=O)[C@H](CCCNC(=N)N)NC1=O [^68Ga‐HZ20, metal not drawn], the SUVmax breast [4] is reported as 2.72, the SUVmax testis [4] is reported as 5.57 and the blood-brain barrier penetration [4] is reported as “poor”. For the same compound, the “uptake in immature follicles” value [5] was “no uptake”, the “uptake in stroma of ovary” value [5] was “slight uptake” and the “in vitro stability (radiochemical purity by radio-HPLC)” value [6] was “stable”. The SUV at 2 h [7] was 0.099 ± 0.0065 SUV, the tissue uptake per volume at 2 h [7] was 0.56 %ID/mL and the SUV at 1.5 h ([8]; female, SUVmax breast) was 1.78 ± 0.17 SUV. For the same compound, the SUV at 1.5 h ([8]; female, SUVmax breast, old group) was 1.35 ± 0.22 SUV, the SUV at 1.5 h ([8]; female, SUVmax breast, young group) was 2.21 ± 0.25 SUV and the SUV ([8]; female, SUVmax corpus luteum) was 7.35 SUV. The SUV at 1.5 h ([8]; female, SUVmax gallbladder) was 2.76 SUV, the SUV at 1.5 h ([8]; female, SUVmax ovary) was 2.12 ± 1.42 SUV and the SUV at 1.5 h ([8]; female, SUVmax renal cortex) was 38.8 SUV. The SUV at 1.5 h ([8]; female, SUVmax uterus) was 2.41 ± 0.34 SUV, the SUV at 1.5 h ([8]; SUVmax conjunctiva) was 1.71 ± 0.08 SUV and the SUV at 1.5 h ([8]; SUVmax esophagus) was 1.63 ± 0.11 SUV. The SUV at 1.5 h ([8]; SUVmax liver) was 1.59 ± 0.14 SUV, the SUV at 1.5 h ([8]; SUVmax nasal) was 1.91 ± 0.18 SUV and the SUV at 1.5 h ([8]; SUVmax pancreas) was 1.63 ± 0.24 SUV. It also gave an SUV at 1.5 h ([8]; SUVmax rectum) of 1.46 ± 0.13 SUV, an SUV at 1.5 h ([8]; SUVmax renal cortex (right kidney in Figure 7)) of 25.7 ± 1.39 SUV and an SUV at 1.5 h ([8]; SUVmax renal cortex, left kidney) of 22.2 ± 1.78 SUV. The SUV at 1.5 h ([8]; SUVmax renal cortex, right kidney, person recovered from COVID-19, 7 months post infection, 90 min) was 18.4 SUV, the SUV at 1.5 h ([8]; SUVmax renal medulla) was 18.3 ± 1.42 SUV and the SUV at 1.5 h ([8]; male, SUVmax gallbladder) was 0.75 SUV. For the same compound, the SUV at 1.5 h ([8]; male, SUVmax gallbladder, male recovered from COVID-19, 90 min) was 4.32 SUV, the SUV at 1.5 h ([8]; male, SUVmax left testis) was 4.58 ± 0.4 SUV and the SUV at 1.5 h ([8]; male, SUVmax left testis, male recovered from COVID-19, 90 min) was 8.65 SUV. It also gave an SUV at 1.5 h ([8]; male, SUVmax penis) of 2 ± 0.25 SUV, an SUV at 1.5 h ([8]; male, SUVmax renal cortex) of 23.9 SUV and an SUV at 1.5 h ([8]; male, SUVmax renal cortex, left kidney, male recovered from COVID-19, 90 min) of 11.6 SUV. For the same compound, the SUV at 1.5 h ([8]; male, SUVmax right testis) was 4.51 ± 0.54 SUV, the SUV at 1.5 h ([8]; male, SUVmax right testis, male recovered from COVID-19, 90 min) was 8.79 SUV and the SUV at 1.5 h ([8]; male, SUVmax small intestine) was 0.48 SUV. The SUV at 1.5 h ([8]; male, SUVmax testis) was 4.46 ± 0.3 SUV.

Compound DOTA-DX600 (peptide) has a Kd [9] of 100 nM.

Compound DX600 (peptide) has a Kd [9] of 98.7 nM.
